We go through 15 molecules from publication PMC4579600, “Structure of HCMV glycoprotein B in the postfusion conformation bound to a neutralizing human antibody” (Nature Communications, 2015).

Data set [1] deals with HCMV glycoprotein B ectodomain ΔNgB-glyco (HCMV (Merlin strain)) (UniProt F5HB53).
For data set [2], the target named is 1G2 IgG (neutralizing human monoclonal antibody) (human). Nature of the data set: SPR.
The target of data set [3] is 1G2 IgG heavy chain F104A (human). Nature of the data set: SPR.
The target in data set [4] is 1G2 IgG heavy chain N102A (human). Nature of the data set: SPR.
For data set [5], the target named is 1G2 IgG heavy chain R31S (human). Nature of the data set: SPR.
Data set [6] deals with 1G2 IgG heavy chain S32A (human). Nature of the data set: SPR.
Data set [7] has as its target 1G2 IgG heavy chain Y103A (human). Put plainly: SPR.
Data set [8] deals with 1G2 IgG heavy chain Y109A (human). Nature of the data set: SPR.
Data set [9] addresses 1G2 IgG light chain R51A (human). Nature of the data set: SPR.
The target of data set [10] is 1G2 IgG light chain Y50A (human). Put plainly: SPR.
The target of data set [11] is T1, full-length WT HCMV gB (HCMV (strain ), UniProt F5HB53). Nature of the data set: cell-based or functional assay.
Data set [12] addresses T2, HCMV glycoprotein B ectodomain gB-698glyco (Human cytomegalovirus, Merlin, UniProt F5HB53, Ile156His | His157Arg | Trp240Asn | Tyr242Thr | Cys246Ser | Arg457Ser | …).
T2 construct: also called postfusion gB; soluble gB ectodomain; source: CHO lec- cells, stably expressed, secreted, purified (Ni-NTA, SEC)
Nature of the data set: co-IP; soluble gB ectodomain (gB-698glyco) in 1% NP40, incubated with 10 μg 1G2 for 16 h at 4 °C, Dynabeads Protein A, blot with ITC88. The settings on record: both partners purified.

Data set [13] concerns the target T3, HCMV virion gB (strain VR1814) (Human cytomegalovirus (HHV-5), strain …, UniProt Q69163, strain).
T3 construct: also called gB from virions; source: cushion-purified VR1814 virions, lysed in 1% NP40
Put plainly: co-IP; cushion-purified VR1814 virions (500 μg) lysed in 1% NP40, incubated with 10 μg 1G2 for 16 h at 4 °C, Dynabeads Protein A, blot with ITC88. Particulars: one partner purified.

The target in data set [14] is T1, full-length WT HCMV gB. Nature of the data set: flow cytometry on cells; BHK cells electroporated with full-length gB RNA, surface stained with 1 μg antibody per sample, goat anti-human IgG Alexa Fluor 647; gated on viable, dsRNA+ cells. The settings on record: one partner purified.

Where “and” joins values, the source holds several entries; their conditions need not be identical. Identical values can stand only once.

For the molecule “1G2 IgG (neutralizing human monoclonal antibody)”, the neutralisation EC50, HCMV TB40/E infection of ARPE-19 epithelial cells in data set [1] stood at 0.1 mg/L.

In the case of “HCMV glycoprotein B ectodomain ΔNgB-glyco (from UniProt F5HB53 25-698) (domain or fragment)”, the Kd in data set [2] was 0.13 nM and 0.17 nM; in data set [3], 1.53 nM; in data set [4], 1.71 nM; in data set [5], 0.22 nM; in data set [6], 0.03 nM; in [7] it was 2.36 nM. The dissociation constant Kd is 0.24 nM in [8], 0.16 nM in data set [9] and 0.33 nM in data set [10]. In addition, the koff in data set [2] was 3.75e-05 s⁻¹ and 6.36e-05 s⁻¹; in data set [3] it was 0.00045 s⁻¹; in data set [4], 0.000526 s⁻¹; in [5] it was 6.07e-05 s⁻¹; in [6], 1.06e-05 s⁻¹; in data set [7] it was 0.000766 s⁻¹. Also, the results for the off-rate (koff) in [8], in data set [9] and in [10] were 7.67e-05 s⁻¹, 5.11e-05 s⁻¹ and 0.000118 s⁻¹, respectively. The kon is 295000 M⁻¹ s⁻¹ and 370000 M⁻¹ s⁻¹ in data set [2]; 294000 M⁻¹ s⁻¹ in [3]; 306000 M⁻¹ s⁻¹ in data set [4]; 273000 M⁻¹ s⁻¹ in data set [5]; 396000 M⁻¹ s⁻¹ in data set [6]; 325000 M⁻¹ s⁻¹ in data set [7]. The kon amounted to 324000 M⁻¹ s⁻¹ in [8], 327000 M⁻¹ s⁻¹ in data set [9] and 357000 M⁻¹ s⁻¹ in data set [10].

In [2], “ΔNgB-glyco E292A (from UniProt F5HB53 25-698) (domain or fragment)” yielded a Kd of 0.82 nM, an off-rate constant (koff) of 0.000108 s⁻¹ and a kon of 132000 M⁻¹ s⁻¹.

In data set [2], “ΔNgB-glyco F290A (from UniProt F5HB53 25-698) (domain or fragment)” registered a dissociation constant Kd of 3.79 nM, a koff of 0.000249 s⁻¹ and a kon of 66000 M⁻¹ s⁻¹.

In [2], “ΔNgB-glyco F297A (from UniProt F5HB53 25-698) (domain or fragment)” displayed a Kd of 13.7 nM, a koff of 0.000267 s⁻¹ and a kon of 19000 M⁻¹ s⁻¹.

In the case of “ΔNgB-glyco F298A (from UniProt F5HB53 25-698) (domain or fragment)”, in data set [2], the equilibrium dissociation constant (Kd) was found to be 0.26 nM, the koff is 5.59e-05 s⁻¹ and the on-rate constant (kon) is 214000 M⁻¹ s⁻¹.

Turning to “ΔNgB-glyco I299A (from UniProt F5HB53 25-698) (domain or fragment)”, in data set [2], the Kd came out at 0.58 nM, the koff was determined as 9e-05 s⁻¹ and the kon was 155000 M⁻¹ s⁻¹.

Regarding “ΔNgB-glyco N281A (from UniProt F5HB53 25-698) (domain or fragment)”, in [2], the Kd was determined as 0.21 nM, the koff was 4.57e-05 s⁻¹ and the kon was 218000 M⁻¹ s⁻¹.

Take “ΔNgB-glyco N284A (from UniProt F5HB53 25-698) (domain or fragment)”: in data set [2], the Kd came to 0.24 nM, the koff was found to be 7.66e-05 s⁻¹ and the association rate constant (kon) was found to be 320000 M⁻¹ s⁻¹.

Turning to “ΔNgB-glyco N286A (from UniProt F5HB53 25-698) (domain or fragment)”, in data set [2], the dissociation constant Kd was found to be 0.07 nM, the koff came to 4.89e-05 s⁻¹ and the kon is 724000 M⁻¹ s⁻¹.

Consider “ΔNgB-glyco N293A/D295A (from UniProt F5HB53 25-698) (domain or fragment)”, for which, in data set [2], the Kd is 0.35 nM, the koff is 8.43e-05 s⁻¹ and the on-rate (kon) worked out at 240000 M⁻¹ s⁻¹.

For the molecule “ΔNgB-glyco T283A (from UniProt F5HB53 25-698) (domain or fragment)”, in data set [2], the Kd was 0.23 nM, the koff came out at 6.99e-05 s⁻¹ and the kon was found to be 310000 M⁻¹ s⁻¹.

In data set [2], “ΔNgB-glyco Y280A (from UniProt F5HB53 25-698) (domain or fragment)” gave a Kd of 29.3 nM, a koff of 0.000195 s⁻¹ and a kon of 7000 M⁻¹ s⁻¹.

For the molecule “ΔNgB-glyco YND-AAA (Y280A/N293A/D295A) (from UniProt F5HB53 25-698) (domain or fragment)”, in data set [2], the Kd was found to be 18.7 nM, the koff was determined as 0.000392 s⁻¹ and the kon amounted to 21000 M⁻¹ s⁻¹.

B1: 1G2 IgG (neutralizing human monoclonal antibody) (antibody, V domains shown)
VH: QLQLQESGPGLVKPSETLSLTCTVSGASIDRSTYYWGWIRQPPGKGLEWIANIYYNGRAVYSPSLKSRVTISVDTSKNQFSLKVRSLTAADTAVYYCATRWNYFFDFDYWGRGTLVTVSS
VL: QSVLTQPPSASGTPGQRVTISCSGSSSNIETNYVSWYQQFPGTAPKLLIYRNNQRPSGVPDRFSGSKSGTSASLAISGLRSEDEAEYYCGTWDDNSWVFGGGTKLTVL
notes: IgG1; also called 1G2 mAb; WT 1G2
Consider B1, for which, in the data set with full-length WT HCMV gB [11], the “neutralisation EC50, gB on virus of HCMV strain 8816 (Ala287), ARPE-19 cells” value was 0.046 mg/L; the “neutralisation EC50, gB on virus of HCMV strain 8819 (Ala287), ARPE-19 cells” value was 0.485 mg/L; the “neutralisation EC50, gB on virus of HCMV strain 8819 (Ala287), NHDF cells” value was 0.85 mg/L; the “neutralisation EC50, gB on virus of HCMV strain 8822 (Ala287), ARPE-19 cells” value was determined as 0.319 mg/L. In the data set with full-length WT HCMV gB [11], the “neutralisation EC50, gB on virus of HCMV strain 8822 (Ala287), NHDF cells” value was 0.485 mg/L; the “neutralisation EC50, gB on virus of HCMV strain 8824 (Ala287), ARPE-19 cells” value worked out at 0.019 mg/L; the “neutralisation EC50, gB on virus of HCMV strain 8824 (Ala287), NHDF cells” value was 0.043 mg/L; the “neutralisation EC50, gB on virus of HCMV strain TM-28175 (Ala287), NHDF cells” value came out at 0.138 mg/L. Further, in the data set with full-length WT HCMV gB [11], the “neutralisation EC50, gB on virus of HCMV strain TR (Ala287), ARPE-19 cells” value worked out at 0.248 mg/L and the “neutralisation EC50, gB on virus of HCMV strain TR (Ala287), NHDF cells” value is 0.303 mg/L. Further, the binding result in data set [12] is listed as “binds”. The binding result in data set [13] was “binds”. Further, the binding result with full-length WT HCMV gB [14] was “binds”.
